{"source": "patent US20020094546A1", "key": {"[1]": {"target": "beta PDGF receptor on HR5βR cells expressing only the beta receptor (UniProt P09619)", "sequence (P09619 33-1106 limits assumed)": "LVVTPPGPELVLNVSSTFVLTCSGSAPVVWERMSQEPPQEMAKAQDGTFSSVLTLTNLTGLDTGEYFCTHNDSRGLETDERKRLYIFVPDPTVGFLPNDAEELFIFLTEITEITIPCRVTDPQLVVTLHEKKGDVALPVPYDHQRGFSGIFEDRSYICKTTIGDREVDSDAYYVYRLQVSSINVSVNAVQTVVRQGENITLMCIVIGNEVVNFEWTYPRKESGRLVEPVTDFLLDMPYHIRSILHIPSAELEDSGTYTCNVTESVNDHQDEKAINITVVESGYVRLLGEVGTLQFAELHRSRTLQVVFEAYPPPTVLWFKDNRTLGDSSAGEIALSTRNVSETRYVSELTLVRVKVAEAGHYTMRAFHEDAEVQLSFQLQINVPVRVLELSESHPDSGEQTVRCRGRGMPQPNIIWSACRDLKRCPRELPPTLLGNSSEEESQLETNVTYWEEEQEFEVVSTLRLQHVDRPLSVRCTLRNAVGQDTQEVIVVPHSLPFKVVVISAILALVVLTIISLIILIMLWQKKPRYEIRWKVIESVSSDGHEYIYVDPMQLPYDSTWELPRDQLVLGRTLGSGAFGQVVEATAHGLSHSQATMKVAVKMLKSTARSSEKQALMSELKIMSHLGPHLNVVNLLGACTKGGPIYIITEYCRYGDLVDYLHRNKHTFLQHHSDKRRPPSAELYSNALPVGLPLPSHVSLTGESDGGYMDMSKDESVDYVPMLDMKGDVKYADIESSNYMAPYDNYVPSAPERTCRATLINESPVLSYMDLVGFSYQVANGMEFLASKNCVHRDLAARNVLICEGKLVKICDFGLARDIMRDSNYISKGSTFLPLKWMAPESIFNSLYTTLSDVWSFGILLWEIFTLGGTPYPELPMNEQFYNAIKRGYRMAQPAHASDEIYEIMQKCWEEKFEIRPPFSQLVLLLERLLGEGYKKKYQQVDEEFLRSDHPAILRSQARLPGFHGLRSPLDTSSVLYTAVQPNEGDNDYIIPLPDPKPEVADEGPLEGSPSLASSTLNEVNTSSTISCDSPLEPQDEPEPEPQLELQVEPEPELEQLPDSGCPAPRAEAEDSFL", "assay": "cell-based or functional assay"}, "[2]": {"target": "alpha PDGF receptor on 32D cells expressing only the alpha receptor (UniProt P16234)", "sequence (P16234 24-1089)": "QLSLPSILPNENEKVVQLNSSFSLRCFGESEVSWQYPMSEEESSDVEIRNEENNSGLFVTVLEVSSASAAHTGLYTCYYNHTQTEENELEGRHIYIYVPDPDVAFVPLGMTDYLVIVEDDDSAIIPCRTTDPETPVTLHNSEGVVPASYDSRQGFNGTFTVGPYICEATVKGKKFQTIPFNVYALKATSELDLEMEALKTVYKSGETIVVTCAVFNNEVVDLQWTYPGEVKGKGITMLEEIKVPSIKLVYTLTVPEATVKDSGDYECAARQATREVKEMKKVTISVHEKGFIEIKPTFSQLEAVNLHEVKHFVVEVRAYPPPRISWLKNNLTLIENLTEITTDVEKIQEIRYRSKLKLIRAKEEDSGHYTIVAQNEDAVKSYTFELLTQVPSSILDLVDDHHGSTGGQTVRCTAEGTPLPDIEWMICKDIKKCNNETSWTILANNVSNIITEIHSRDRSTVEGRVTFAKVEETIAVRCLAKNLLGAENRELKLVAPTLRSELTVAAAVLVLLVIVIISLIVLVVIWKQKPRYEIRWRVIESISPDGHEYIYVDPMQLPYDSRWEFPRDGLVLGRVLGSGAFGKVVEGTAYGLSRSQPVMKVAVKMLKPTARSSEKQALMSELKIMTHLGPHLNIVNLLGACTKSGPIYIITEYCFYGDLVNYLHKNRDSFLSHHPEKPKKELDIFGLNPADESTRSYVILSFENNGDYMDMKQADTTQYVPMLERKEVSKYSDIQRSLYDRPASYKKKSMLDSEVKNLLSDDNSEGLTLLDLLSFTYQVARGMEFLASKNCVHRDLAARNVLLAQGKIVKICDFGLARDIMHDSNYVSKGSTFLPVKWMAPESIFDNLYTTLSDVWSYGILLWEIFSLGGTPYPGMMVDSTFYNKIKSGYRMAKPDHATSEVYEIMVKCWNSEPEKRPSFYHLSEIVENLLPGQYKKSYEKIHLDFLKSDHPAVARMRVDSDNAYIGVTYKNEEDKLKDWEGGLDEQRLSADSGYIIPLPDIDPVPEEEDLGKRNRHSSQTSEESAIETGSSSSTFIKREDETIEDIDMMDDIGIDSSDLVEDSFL", "assay": "competition of unlabeled PDGF DD with ^125I-PDGF AA on 32D alpha receptor bearing cells"}, "[3]": {"target": "human beta PDGF receptor on human cells that carry both receptors (CCD1070 fibroblasts, MG-63 cells) (human) (UniProt P09619)", "sequence (P09619 33-1106)": "as the sequence (P09619 33-1106 limits assumed) above", "assay": "two-site ELISA for alpha-beta PDGF receptor heterodimers: capture with anti-beta PDGF receptor mAb, detection with polyclonal anti-alpha PDGF receptor; MG-63 lysates after PDGF BB 10 ng/mL, 10 min"}, "[4]": {"target": "human beta PDGF receptor on human cells that carry both receptors (CCD1070 fibroblasts, MG-63 cells) (human) (UniProt P09619)", "assay": "two-site ELISA for alpha-beta PDGF receptor heterodimers: capture with anti-beta PDGF receptor mAb, detection with polyclonal anti-alpha PDGF receptor; MG-63 lysates after PDGF DD 100 ng/mL, 10 min"}, "PDGF AA (human)": {"target": "PDGF AA (human) (UniProt P04085)", "assay": "cell-based or functional assay"}, "[5]": {"target": "PDGF DD p35 (p35 form of the 30664188 gene product, dimeric C-terminal fragment) (human)", "assay": "cell-based or functional assay"}}}
{"substance": "PDGF DD p35 (p35 form of the 30664188 gene product, dimeric C-terminal fragment) (ligand)", "values": [{"measurement": "lowest concentration at which beta PDGF receptor phosphorylation was detected, HR5 cells", "setting": "[1]", "value": 10, "unit": "ng/mL"}, {"measurement": "highest competitor concentration tested, no competition seen", "setting": "[2]", "value": "> 250", "unit": "nM"}]}
{"substance": "human alpha PDGF receptor on human cells that carry both receptors (CCD1070 fibroblasts, MG-63 cells) (from UniProt P16234 24-1089)", "values": [{"measurement": "Increase mODmin^-1 (650) (mODmin^-1 (650))", "setting": "[3]", "value": 2.3}, {"measurement": "Increase mODmin^-1 (650) (mODmin^-1 (650))", "setting": "[4]", "value": 12.5}]}
{"substance": "soluble beta PDGF receptor-IgFc fusion (R&D Systems) (from UniProt P09619 33-530)", "values": [{"measurement": "BrdU incorporation OD-blank, CCD1070 cells, AA + betaR Fc (AA alone 0.2705; + MOPC21 0.227)", "setting": "PDGF AA (human)", "value": 0.248, "unit": "OD-blank"}, {"measurement": "BrdU incorporation OD-blank, NIH/3T3 cells, AA + betaR Fc (AA alone 0.931; + MOPC21 0.992)", "setting": "PDGF AA (human)", "value": 0.942, "unit": "OD-blank"}, {"measurement": "BrdU incorporation OD-blank, CCD1070 cells, 3066 + betaR Fc (3066 alone 0.501; + MOPC21 0.456; starve 0.0303)", "setting": "[5]", "value": 0.324, "unit": "OD-blank"}, {"measurement": "BrdU incorporation OD-blank, NIH/3T3 cells, 3066 + betaR Fc (3066 alone 0.902; + MOPC21 0.892; starve 0.0055)", "setting": "[5]", "value": 0.0365, "unit": "OD-blank"}]}
